From publication PMC6643034
pKd: −log10 of the molar value.

Experiments:
[1] = biological target: CXC-motif chemokine ligand 10 (CXCL10) (human) (UniProt P02778)
[2] = biological target: P1126 (Amblyomma cajennense); assay: BLI; OctetRed; evasin held on a nickel-coated biosensor by its C-terminal His tag; titration with chemokine from 600 to 0.4 nM; noninteracting reference protein; fit R2 ≥0.96, at least five data points
[3] = biological target: P1142 (Amblyomma cajennense); assay: as above
P675 (Ixodes ricinus) = assay: as above
P942 (Ixodes ricinus) = assay: as above

Chain of CXCL11 (O14625 22-94): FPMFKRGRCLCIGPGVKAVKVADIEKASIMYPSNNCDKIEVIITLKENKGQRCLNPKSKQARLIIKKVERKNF

Row | Substance | neutralization of human CXCL10-induced migration of activated human CD8+ T-cells (Transwell, EC80 dose of CXCL10, P1142 0.015–150 nM); mean IC50 of five biological replicates [1] [M] | pKd [2] | pKd [3] | pKd (P675 (Ixodes ricinus)) | pKd (P942 (Ixodes ricinus)) | neutralization of human CXCL10-induced migration of activated human CD8+ T-cells (Transwell, EC80 dose of CXCL10, EVA3:S5 0.015–1000 nM); mean IC50 of five biological replicates [1] [M] | neutralization of human CXCL8-induced granulocyte migration (Transwell, EC80 dose of CXCL8, EVA3:S5 0.05–200 nM); mean IC50 of four biological replicates (CXCL8 (human)) [M] | target residence time [3] [min]
1 | P1142 (natural protein) | 1.85e-09 |  |  |  |  |  |  | 
2 | CXCL11 (from UniProt O14625 22-94) (ligand) |  | < 6.52 | < 6.52 | > 7.70 | > 7.70 |  |  | 
3 | EVA3:S5 (from UniProt P0C8E8 70-86) |  |  |  |  |  | 3.11e-08 | 3.23e-08 | 
4 | CXC-motif chemokine ligand 10 (CXCL10) (from UniProt P02778 22-98) |  | > 8.00 | > 8.00 | < 7.00 | < 7.00 |  |  | > 10
